In series [1] the target is T1, PpMYB8 (Pinus pinaster, UniProt D7GLD4 1-534). Briefly: EMSA; shift reduced by unlabeled probe; EMSA buffer, salt, pH and temperature not given in material (electrophoresis as in Rueda-López et al. 2008). The conditions noted are these: protein: recombinant; label: 5'-biotin.
For series [2], the target named is T1, PpMYB8. Briefly: EMSA; EMSA buffer, salt, pH and temperature not given in material (electrophoresis as in Rueda-López et al. 2008). The conditions noted are these: protein: recombinant; label: 5'-biotin. On the technique in general: A gel shift assay detects complexes by their altered migration in electrophoresis.

T1 sequence (D7GLD4 entry or part of it): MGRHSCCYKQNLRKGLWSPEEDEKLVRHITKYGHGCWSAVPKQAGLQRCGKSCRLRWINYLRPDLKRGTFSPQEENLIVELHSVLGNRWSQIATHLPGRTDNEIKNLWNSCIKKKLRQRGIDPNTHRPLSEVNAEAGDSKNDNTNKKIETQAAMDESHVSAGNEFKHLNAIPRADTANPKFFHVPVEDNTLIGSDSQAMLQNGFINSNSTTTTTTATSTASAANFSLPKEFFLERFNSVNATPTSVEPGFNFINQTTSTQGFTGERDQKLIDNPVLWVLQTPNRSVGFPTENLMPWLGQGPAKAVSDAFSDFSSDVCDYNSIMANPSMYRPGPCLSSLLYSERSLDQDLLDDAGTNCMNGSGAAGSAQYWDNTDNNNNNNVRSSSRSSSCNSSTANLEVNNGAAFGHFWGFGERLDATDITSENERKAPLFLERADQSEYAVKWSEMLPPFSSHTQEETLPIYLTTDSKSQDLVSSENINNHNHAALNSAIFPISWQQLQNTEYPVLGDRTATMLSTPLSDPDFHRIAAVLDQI

B1: probe A2 (PADT-A 281-370) (dsDNA)
DNA 1: ACAACAGACTGGTAAGGCACACGTGCTTCCACGAGATCCACTAACTTGCGCGGGTGTTTACACACCTAACCACTCCGGAGCTTCCATGCT
DNA 2: AGCATGGAAGCTCCGGAGTGGTTAGGTGTGTAAACACCCGCGCAAGTTAGTGGATCTCGTGGAAGCACGTGTGCCTTACCAGTCTGTTGT
On to B1, for which, in the series with PpMYB8 [1], the binding result is “binds”.

B2: probe A1 (PADT-A 225-329) (dsDNA)
DNA 1: TAACTTGCGCGGGTGTTTACACACCTAACCACTCCGGAGCTTCCATGCTTCATCCACGAGTCAGAGGGGCCTTTCCTCCAACCACCCTAGATCAGCATGAGCTAT
DNA 2: ATAGCTCATGCTGATCTAGGGTGGTTGGAGGAAAGGCCCCTCTGACTCGTGGATGAAGCATGGAAGCTCCGGAGTGGTTAGGTGTGTAAACACCCGCGCAAGTTA
Turning to B2, the binding result with PpMYB8 [2] is on record as “no binding”.

B3: probe D2 (PADT-D 192-318) (dsDNA)
DNA 1: GCTGGTGAGAAGGGCCAAACCAAAAAAAAACCAAACGAAATCACAGCGTACGATCTAACTAACCGTGTTGAATAGTCCCGTGACGTAGCCGCCGTAATGTGCAACAACCCACCATGGGATGGAGCAG
DNA 2: CTGCTCCATCCCATGGTGGGTTGTTGCACATTACGGCGGCTACGTCACGGGACTATTCAACACGGTTAGTTAGATCGTACGCTGTGATTTCGTTTGGTTTTTTTTTGGTTTGGCCCTTCTCACCAGC
On to B3, for which the binding result with PpMYB8 [2] is “no binding”.

The values above are taken from article PMC7260716, “Transcriptional analysis of arogenate dehydratase genes identifies a link between phenylalanine biosynthesis and lignin biosynthesis”.
